According to the domain aggregation screens of Martell et al. (2025):

Assay: soluble fraction after stress (log2 fold change); higher = more stays soluble; pooled small domains, quantitative proteomics
Conditions: stress: 75 degC
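Note: 20 min heating vs room temperature control held 20 min.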

Row | Sequence | soluble fraction (log2)
1 | HMANMTAKQINMFGDKLSRDKDFQSYYIAKSGDSREQYAQDIKGKLLDPFYVNAWMPYLEKIGFVPS | 0.0935
2 | HMANPEFAGYINGKPYFGPTHQHRGVKMLGATHTRNPHPLVWDSIAESLANYDSRFRWSGGQIL | -0.853
3 | HMANTAKVNVDTANLRETADENSKILKQLSLNDNLEVVEETGDWYKVKNSNVTGYVRKDLVTVEN | 0.31
4 | HMANTLDPMDLKQIISLHLDGFSNRKIGATLGISRNTVNTYMRLFSVSDYALKELLTLDNATLDKLFPS | -2.06
5 | HMANYYEILGVKHDATEAEIKAAYKQAAKSAHPDAGGSNEKMQEVNAAWEVLGNAQKRAEYDARMA | 0.173
6 | HMAPAGGITRQDLFAWGLMGGEGSREKRQQLKKSLGLPSHLGTSGFLDALNLIATRDQVEALLHK | -0.564
7 | HMAPAILTVQVKPDKIREIIGPGGKMIRMIQSETNTRVEVDDSGLVKIAAVSKEEGEAALKMVSDITME | 0.331
8 | HMAPDAPDGFVHRWIRAEMLGQEDKSNVHRRMQEGYELVRADEYPDSDLPVAEGRYAGIIGVGGLLLARF | -0.206
9 | HMAPDDTAVWSAFIGWFRTAPDGPNPLGAYAAKLGEEGLDAAEVGRRMTVIVRLFAEKPEGAEVFYDRTYA | -2.66
10 | HMAPDYYALLGVPRNATTAEVRKAFRGKALEQHPDRGGDEESFRLLSKAYDVLSDSERRKYYDRTG | -0.0151
11 | HMAPEKLVHELVGLSLRAGNLDLLAATLSAHKTVLSKESTAEYVKAGLAIEPNHLPLRVLAEQDLGWS | -1.17
12 | HMAPFVIQQGQDVRLISKGPGFAVSNDGKALTNAAEGQLARARTANGQTVSGIARQGGIIEIA | -0.0321
13 | HMAPGIGDSKYFSHIYEMKHIDTIIDNDKGDRLIEHFEIQDTPFIFTKHWTSAFGFSKRQQEIITDYLSYF | 0.12
14 | HMAPGVHVEALLPYTAGSLVSQIREYGNVDAVEYRDTGILLQADVDERLAAQIMDQALEDPV | 0.0715
15 | HMAPLADQIVDLLKEHDGFLPLHDNSSPEDIRATVGTSKKAFKQAIGGLFREKRIVIGPTGIRLIS | -0.694
16 | HMAPLATIHVSSLSQKPFYLYGTFEDRRGNHLFFLEQIMGENKSIPVAMPSSAINPKIHASLTPPKG | -0.494
17 | HMAPLQDENGDLTFSYNGKTYTVNVNSEEDRNSFAEDFNKENGKKFSWFKERAGLQHYVFYDTEM | -0.00699
18 | HMAPLVTLEADGNGAVKLSNLAGHSIREVAGALGGAGLSLIPVGSGTSWKQNPAPGTVLHSGDTVTVYF | 0.177
19 | HMAPPIQQQVESLMNSFAKIGVTVPMLESRLQHAMSAVTANELVMLRKIGASIRDGFATVAEQFPA | -1.14
20 | HMAPPPPEGYIHRWIRESVMGFDDKKNLSARIREGFELVRAEEYPDYEAPTVMDGKHAGVIANGGLLLARF | -0.201
21 | HMAPQQARAAKTRVKLLDAAATVVRRDGIQAMTLARVAEEAGVSKGGLLHHFGSKEELVTGMLEQ | -0.21
22 | HMAPRASDALTERELDVLRVVADGASVAEAAEMLVVSRETVKKHLGNIYAKLGVHSKMQAVALLREEGV | -0.788
23 | HMAPRKNIRLLRAAQDKAAAEGDHETVDAIRGQIAALIETLPVQYREEYLLQEKGRENGLKLAIENAAK | 0.663
24 | HMAPSLQISLKQAIITAQQQHPGSKALNADFDGARGTPRYVIETLLPTGELRELTIDAQSGQVMEDHPDR | 0.234

Row | Sequence | soluble fraction (log2)
25 | HMAPSPEGAAILRESVESVARDQVDRVALTMTARGYTTAEIAAALMVDRSTISRRLYAMRDRYHAQQDNAQ | -0.526
26 | HMAPSVNEVAWAQKIIDAHAEAAAAGKGLVVVDGKLIENLHVEEAKQLLSLSDAIAKNDASNG | 0.0645
27 | HMAPTGTDRQTPHTRDELYLVLSGTGTFVNGDARHPFGPGDALFVPAGAEHRFEDFSDDFRTWVVFYGAEG | -0.163
28 | HMAPVVAILTRQLPLPQAQQLAGQTALVRVVKGGPGNEAELEFAGQNIQVKLPPGRQLTAGEMVTVAFALS | -0.762
29 | HMAQASEPMLALIRLKWWEEQINSPVKGDSLPLLSQLNSHISAGYLSRSQVTSLIQRWQDYA | -0.983
30 | HMAQFNELLFELRQDRKMTQEDLAKVLFVTSGTISNYENGVHLPDIEKLISLADFFGVTTDYLLG | -0.189
31 | HMAQLKYEQIKSYLQAEAVKPESATRMPTVRELMRRFNVSLVTVNRALSELEHAKVIVRRQGAGIVAAQ | -0.662
32 | HMAQLPADMSRVKSADVSDAQLREFVQKAQASGQTETQLFREFSRRGMPTNEINILRSRMVGLQNN | 0.152
33 | HMAQLPPTATARATSDVSGLTASAALRTLLEQGFVPQIHGSGKVSRQHPPAGTLLEPGSTIQLFLEPS | 0.261
34 | HMAQLSDMLTYLRKRKGLSQQELANTLKISRSAIGMYETGKREPDLETLEVFADFYNVDMNTLTGKA | -0.245
35 | HMAQNILPGQKNAIKSLATSAGFSQQELDSYLSQNYGKTLNNLSQKEGASLISGLQDGSIKKP | 0.988
36 | HMAQPIPSGSDIREAREAAGMNLRDFARMVGGGAIGTWSHYETGKPIRVKSISPEVWQRVRDFILQHGK | -0.676
37 | HMAQRAADEARTHEILGLLRQARAALDHGGTARAARLRASIAEKLPAAPALPAWFARQLEQVDSQLAELQD | -0.768
38 | HMAQRFDLGDKLNPQSSEFEYLGTSSRTGVSTYRYKNVPTQLFFGRQIGDIVVGVRRGMITLTIYNL | 0.0868
39 | HMAQSTALVNLAQAEINKRGLTQTEVQARLSEEGINVNSISPAEYPKYQKQILSILDQMQKEKQLSKEV | 0.287
40 | HMAQVDAVQQVLQAFPALRSGQSQHLSQVVAALRQRGILTVGTKTTAWFAQWASVFQLLPLQVPNRIRYQS | 0.0672
41 | HMARGRETILLVEDEPAVRGLVHATLRLHGYTVLEARHGIEALLTSTKFVGPIHLLLTDVVMPQMS | 0.0984
42 | HMARHIHFEVHVQQAGRWSIHAQFGAGQREKAIEEAKKIEKTPGFDSVKVVKETYDSDLGNHQDTTIYRGP | -1.18
43 | HMARKTIFHSLLGELEQRIGRLPAGTILPAEQALADEYGVSKPTLRRALAELAEHGLITKENGIGSVVI | -0.577
44 | HMARLAGVDLPREKRIEIGLTYIYGIGLARSQEILKKAGINPDIRVKDLTDEQEQAIRNAMDGYIVEGDL | -1
45 | HMARLQEVVVRVPVEDGQTLAAIYREAEVIERADEGTGVLLTVRIPAPLLGRLRRLEGVHVQP | -1.07
46 | HMARRLELEDIPVDEVLFTASRNLVDAIEVMDPSRQAPMIQPWLKQALEWAVGALGFSKEDAVATLTSD | 0.157
47 | HMASAAHYEGVKTEGESDNDVITRVLTATGVTAEKDDIFVVKSLIADGKYSYTAYVYDGSVWAAMD | -0.236
48 | HMASALDVALNDFAEMRKKMRKPLTDRALALTLSELEKLAPGNDEKKIAILNQSIQRGWQGVFPLK | -0.336

Row | Sequence | soluble fraction (log2)
49 | HMASDEVPGAGFKWREDVLLRVMEANGIDKSNRDDFVRHAVNFDDDDNNYLKKAEIEAAAAAWVESQSPA | -0.696
50 | HMASDLPTVTIMGKTFYTYVAKKGESFFGIANRFGWDPELLVKTNRELETPLDKGALIYYPVPKKPK | -1.32
51 | HMASIATLTVKALGGASDVVIRDKDGRIIWADRLPAGQSHRVFGHAPFNVAASHASRVQLSLLGKDVGRV | -1.37
52 | HMASISDRIRLLRAESHMTQEEFGRIFGISKPTVSFYEHGKSVPNDQIKTAIARYFGVSVDYLLGVTD | -2.14
53 | HMASKTGTITATSLNVRSGAATTYSILGTLSNGKTVTIYEESNGWYKINYNGGYGWVSKTYVSTG | -1.53
54 | HMASLASVAYETLRQALDNFQYVPGDRFSESEVGQQLGMSRTPVREALVRLQREGYISVLPKMGWVVNQ | -1.86
55 | HMASMHDGVAARLRAMVFERELAPGEFIDERRLAQQWQISRTPLREALKVLAAEGLVELVPRRGARVV | -1.12
56 | HMASPKEALWRSLAEEPDTWWDNRERKSQPGANPRSPDFKHKESGEALWIESRDTPTWVLETL | -0.196
57 | HMASQEESVATYIQDYYRNPKTGESMVSDDMVEEFYKTHPEWEDQADGSKEGMEAVLDNFNEFFEINYG | 0.333
58 | HMASSRPLAEGDFVRLRAGGATGRIESIKGQKATVQMGGLKVHAPLRDLLPVAEPIKQVSTASNT | -0.00256
59 | HMASVAKHIRRLRTERHMTQGDLAEKLFVTRQTVSAWETGKAQPDLETLERIAVVLGVEVTELIYGAP | -0.707
60 | HMASVVEQVQVSNDISLFRQQNSPYWQARFKVAGKWYTRTTKRTEQTQAAFRAAELRSEVQTKISQGIPLR | -2.56
61 | HMATESYYVLKADVPAKTLVTQEMVEEIKVSKGGAPVNSIKIDNIKEKGVYTSIPLLKGDVLSASNTG | 0.131
62 | HMATKVSSGATVRDVADLLGLSSAELIKKLMMMGEMATLTQTLTDESIKSIADEYDRKIEIVSAAE | -0.0786
63 | HMATNVLEISTRNKNILIQDSLNLVESFYSKSDNQYWYKLVFKTKDDLNKFLQEVSEDENTITYKTSSI | -0.359
64 | HMATPEINNLGRLRNAINQSNVNWHQIIKRLQNEYPNNWRQILIAIDRHDLLFRYDVENYIKYG | -2.31
65 | HMATPIAGTKYTLNNTPVYGTEKGPSIGKRSGIYYTWDATVRNGRIRMTNSPARVGVPWQVSFWVEVNKL | -2.9
66 | HMATPRLAIVPQSAAGRRLDAVLAELFPEYSRSRLSAWIKTGDVMVDGAAPRGRDPVRGGEEITLTAVQ | -0.183
67 | HMATPTEHQLQAQARAVVEKAERLLDRASADDREDIINLIEKITDALAAEDFTAVKAPLAELSDILFYLE | -0.104
68 | HMATPTMEDYIEVIYSLVKTKGYARSADIAEKLEVYPSTVTKMLKKLDAEGYIVYEKYRGIALTDIGKKMG | -2.17
69 | HMATSNGEFVIPDGGLQFEELERSLLMQALKKSGGSQTGAARLLGLSRDTLRYRLEKFGIDAAAVRE | -0.39
70 | HMATVTVPNLKGMTPSGAESALAELNLKGAVGDSVESNDVENGKVASQDQAAGSDAKEGDTITYHLSS | 0.235
